Measured values: patent US20200339638

Experiments:
Experiment in all cases: cell_activity
ZFP-TF 75115 (synthetic) = conditions: expanded sense transcript, C9021 fibroblasts; total C9 preserved >50%
ZFP-TF 75109 (synthetic) = conditions: expanded isoform, C9 patient fibroblasts; about 50% total C9 maintained
ZFP-TF 75114 (synthetic) = conditions: expanded sense transcript, C9021 fibroblasts; total C9 preserved >50%; no repression in C9-BAC mice (p172)

Sequence: CACGCCCCGGCCCCGGCCCCGGCCCCTA (double strand) [C9orf72 antisense target, frame 4]
- activity (ZFP-TF 75115 (synthetic)): > 70 % repression
- activity (ZFP-TF 75109 (synthetic)): 70 % repression
- activity (ZFP-TF 75114 (synthetic)): > 70 % repression
